Laboratory results as given in publication PMC8991256.

Target: LH1–RC core complex, monomeric component of the native dimer (Rhodobacter sphaeroides f. sp. denitrificans strain IL106 (endogenous)) (UniProt Q3J1A4)
Assay: cryo-EM structure; native dimeric LH1–RC from Rba. sphaeroides IL106 in DDM, ~5 mg/ml; C1 symmetry, 2.75 Å

stoichiometry N: 2
Substance: LH1–RC core complex, monomeric component of the native dimer (from UniProt Q3J1A4 1-58; Q3J1A3 1-49; P0C0Y8 1-282; P0C0Y9 1-308; P0C0Y7 1-260; P13402 1-82)
